Test results from patent publication US11407811B2, “Fusion protein, preparation method therefor and use thereof” (JIANGSU RONGTAI BIOTECH CO., LTD., priority 2017, dated 2022).
Marks after values point to notes of the source that are not given here.

Columns and labels:
Assay type in all cases: cell-based
[1] = system: melanoma cell line B16F10; assay: MTT assay, proliferation of melanoma cell B16F10
Method: (§1) The MTT assay was used to detect the inhibitory effect of the integrin blocker fusion protein obtained in Example 1 on the proliferation of various tumor cells, including melanoma cell B16F10, gastric cancer cell MGC-803, lung cancer cell A549, liver cancer cell Hep-G2, breast cancer cell MDA-MB-231, colon cancer cell HCT-116, human glioma U87, and cervical cancer cell Hela.
(§2) The tumor cells were cultured in a 5% CO2 incubator at 37° C. to a density of 90% or more, and collected by trypsinization. The cells were resuspended in the culture liquid and counted under a microscope. The cell concentration was adjusted to 3.0×10^4 cells/mL. The cell suspension was inoculated into a 96-well plate at 100 μL per well and cultured overnight in a 5% CO2 incubator at 37° C. […] After the cells were fully adhered, each dilution was added to a 96-well plate at 100 μL per well, respectively. […] 20 μL of 5 mg/mL MTT was added to each well of a 96-well plate, and incubation was continued for 4 hours. The medium was aspirated and 100 μL of DMSO per well were added to dissolve. The absorbance was measured at 570 nm with a microplate reader with a reference wavelength of 630 nm, and the proliferation inhibition (PI) was calculated. The formula is as follows: […]
(§3) where Ntest is the OD value of the test group and Ncontrol is the OD value of the blank control group.
(§4) The test was repeated 5 times independently. The results obtained from the test were calculated as mean±SD, and statistical t-test was performed. P<0.05 was considered as a significant difference, and P<0.01 was considered as an extremely significant difference.

[2] = system: lung cancer cell A549; assay: MTT assay, proliferation of lung cancer cell A549
Method: as §1, §2, §3, §4

[3] = system: liver cancer cell Hep-G2; assay: MTT assay, proliferation of liver cancer cell Hep-G2
Method: as §1, §2, §3, §4

[4] = system: human umbilical vein endothelial cells (HUVEC); assay: Three-dimensional transwell assay, migration of HUVEC
Method: Human umbilical vein endothelial cells (HUVECs) were cultured with endothelial cell culture fluid containing 5% fetal bovine serum and 1×ECGS in a 5% CO2 incubator at 37° C., to a confluence of 90% or more, and then inhibitory effects of fusion protein I, protein II, protein III, protein IV, and protein V on migration of endothelial cells were detected by transwell assay, in which only endothelial cells HUVEC of passage 2 to 8 were used, and the specific operation was as follows.
(1) 10 mg/mL Matrigel was diluted with a DMEM medium at a ratio of 1:4, coated on a transwell chamber membrane, and air-dried at room temperature.
(2) HUVEC cells cultured to logarithmic phase were digested with 0.2% EDTA, collected, washed twice with PBS, followed by resuspended in an endothelial cell culture liquid containing 0.1% BSA, counted under a microscope, and the cell concentration was adjusted to 1×10^5 cells/mL;
(3) Test solutions for each group were formulated and diluted to 100 μL with a cell culture liquid containing 0.1% BSA;
Groups were divided as follows:
Blank control group: a cell culture liquid containing no drug;
Endostar group: 5 mg/mL Endostar solution diluted to a predetermined concentration with a cell culture liquid containing no drug; […]
(4) The cells were inoculated into a transwell chamber at 100 μL per well, and test solutions for each group were added to the chamber. To a 24-well plate, 0.6 mL of endothelial cell culture liquid containing 5% fetal bovine serum and 1×ECGS was added to stimulate cell migration, and incubated at 5% CO2 for 24 h at 37° C.
(5) The culture liquid in the well was discarded. The cells were fixed with 90% alcohol at room temperature for 30 min, stained with 0.1% crystal violet for 10 min at room temperature, and rinsed with water. Un-migrated cells in the upper layer were gently wiped off by a cotton swab. The observation was carried out under microscope and four fields of view were selected for taking photos and counting. The migration inhibition (MI) was calculated according to the formula: […]
where Ntest is the migration cell number in the test group, and Ncontrol is the migration cell number in the blank control group.
The test was repeated 3 times independently. The results obtained from the test were calculated as mean±SD, and statistical t-test was performed. P<0.05 was considered as a significant difference, and P<0.01 was considered as an extremely significant difference.

B1: Protein II: IgG2-Fc linked to antiangiogenesis polypeptide EDSM-Y via a flexible linker; SEQ ID NO: 17 (protein)
chain: ERKCCVECPPCPAPPVAGPSVFLFPPKPKDTLMISRTPEVTCVVVDVSHEDPEVQFNWYVDGVEVHNAKTKPREEQFNSTFRVVSVLTVVHQDWLNGKEYKCKVSNKGLPAPIEKTISKTKGQPREPQVYTLPPSREEMTKNQVSLTCLVKGFYPSDISVEWESNGQPENNYKTTPPMLDSDGSFFLYSKLTVDKSRWQQGNVFSCSVMHEALHNHYTQKSLSLSPGKGGGGSGGGGSGGGGSFQPVLHLVALNSPLSGGMRGIRGADFQCFQQARAVGLAGTFRAGGGGRGD
A570 nm/A630 nm ([1]; dose 1 μg/mL): 1.1137 ± 0.0370 | PI (%) ([1]; dose 1 μg/mL): 11.17% | A570 nm/A630 nm ([1]; dose 2 μg/mL): 1.0250 ± 0.0230 | PI (%) ([1]; dose 2 μg/mL): 18.24% | A570 nm/A630 nm ([1]; dose 4 μg/mL): 0.8986 ± 0.0731 | PI (%) ([1]; dose 4 μg/mL): 28.32% | A570 nm/A630 nm ([1]; dose 8 μg/mL): 0.7243 ± 0.0421 | PI (%) ([1]; dose 8 μg/mL): 42.23% | A570 nm/A630 nm ([1]; dose 16 μg/mL): 0.6400 ± 0.0661 | PI (%) ([1]; dose 16 μg/mL): 48.95% | A570 nm/A630 nm ([1]; dose 32 μg/mL): 0.5034 ± 0.0286 | PI (%) ([1]; dose 32 μg/mL): 59.85% | A570 nm/A630 nm ([1]; dose 64 μg/mL): 0.3867 ± 0.0195 | PI (%) ([1]; dose 64 μg/mL): 69.16% | PI (%) ([1]; dose 128 μg/mL): 76.59% | A570 nm/A630 nm ([1]; dose 256 μg/mL): 0.1777 ± 0.0212 | PI (%) ([1]; dose 256 μg/mL): 85.83% | A570 nm/A630 nm ([2]; dose 1 μg/mL): 0.8885 ± 0.0374 | PI (%) ([2]; dose 1 μg/mL): 8.28% | A570 nm/A630 nm ([2]; dose 2 μg/mL): 0.7933 ± 0.0253 | PI (%) ([2]; dose 2 μg/mL): 18.11% | A570 nm/A630 nm ([2]; dose 4 μg/mL): 0.7005 ± 0.0396 | PI (%) ([2]; dose 4 μg/mL): 27.69% | A570 nm/A630 nm ([2]; dose 8 μg/mL): 0.6325 ± 0.0215 | PI (%) ([2]; dose 8 μg/mL): 34.71% | A570 nm/A630 nm ([2]; dose 16 μg/mL): 0.5923 ± 0.0192 | PI (%) ([2]; dose 16 μg/mL): 38.86% | PI (%) ([2]; dose 16 μg/mL, listed as protein II): about 40% | A570 nm/A630 nm ([2]; dose 32 μg/mL): 0.5006 ± 0.0347 | PI (%) ([2]; dose 32 μg/mL): 48.32% | A570 nm/A630 nm ([2]; dose 64 μg/mL): 0.4106 ± 0.0286 | PI (%) ([2]; dose 64 μg/mL): 57.61% | A570 nm/A630 nm ([2]; dose 128 μg/mL): 0.2008 ± 0.0147 | PI (%) ([2]; dose 128 μg/mL): 79.27% | A570 nm/A630 nm ([2]; dose 256 μg/mL): 0.1165 ± 0.0159 | PI (%) ([2]; dose 256 μg/mL): 87.97% | A570 nm/A630 nm ([3]; dose 1 μg/mL): 0.6746 ± 0.0372 | PI (%) ([3]; dose 1 μg/mL): 1.49% | A570 nm/A630 nm ([3]; dose 2 μg/mL): 0.6132 ± 0.0253 | PI (%) ([3]; dose 2 μg/mL): 10.46% | A570 nm/A630 nm ([3]; dose 4 μg/mL): 0.5799 ± 0.0396 | PI (%) ([3]; dose 4 μg/mL): 15.32% | A570 nm/A630 nm ([3]; dose 8 μg/mL): 0.5499 ± 0.0215 | PI (%) ([3]; dose 8 μg/mL): 19.70% | A570 nm/A630 nm ([3]; dose 16 μg/mL): 0.5190 ± 0.0185 | PI (%) ([3]; dose 16 μg/mL): 24.21% | A570 nm/A630 nm ([3]; dose 32 μg/mL): 0.4706 ± 0.0374 | PI (%) ([3]; dose 32 μg/mL): 31.28% | A570 nm/A630 nm ([3]; dose 64 μg/mL): 0.4256 ± 0.0268 | PI (%) ([3]; dose 64 μg/mL): 37.85% | A570 nm/A630 nm ([3]; dose 128 μg/mL): 0.3801 ± 0.0174 | PI (%) ([3]; dose 128 μg/mL): 44.49% | A570 nm/A630 nm ([3]; dose 256 μg/mL): 0.3156 ± 0.0151 | PI (%) ([3]; dose 256 μg/mL): 53.91% | inhibitory effect on liver cancer cell Hep-G2 ([3]; in words): a certain inhibitory effect | MI (%) ([4]; dose 0.25 μg/mL): 16.12% | Migration cell number ([4]; dose 0.25 μg/mL): 2108.0 ± 75.27 | MI (%) ([4]; dose 0.5 μg/mL): 52.11% | Migration cell number ([4]; dose 0.5 μg/mL): 1203.5 ± 220.14**^ | MI (%) ([4]; dose 1 μg/mL): 73.06% | Migration cell number ([4]; dose 1 μg/mL): 677.0 ± 24.72**^ | MI (%) ([4]; dose 2 μg/mL): 77.34% | Migration cell number ([4]; dose 2 μg/mL): 569.5 ± 270.29 | MI (%) ([4]; dose 4 μg/mL): 65.86% | Migration cell number ([4]; dose 4 μg/mL): 858.0 ± 145.87 | MI (%) ([4]; dose 8 μg/mL): 29.88% | Migration cell number ([4]; dose 8 μg/mL): 1762.0 ± 183.97
